According to patent EP4596580A1 (Staidson (Beijing) Biopharmaceuticals Co., Ltd., dated 2025):
Where two headings read alike, the source gives them in different places.

What was measured:
[1] = biological target: LIGHT on the surface of HEK293-LIGHT stable cells (human, UniProt O43557 1-240); assay: cell-based or functional assay
hFc-human LIGHT [2] = biological target: T1, hFc-human LIGHT (human); assay: competition ELISA, LTβR-His coated, hFc-huLIGHT 1 µg/ml
T1 construct: also called hFc-huLIGHT

[3] = biological target: T2, His-cynomolgus monkey LIGHT (cynomolgus monkey); assay: ELISA, His-cynoLIGHT coated
T2 construct: also called His-cynoLIGHT
T2 chain: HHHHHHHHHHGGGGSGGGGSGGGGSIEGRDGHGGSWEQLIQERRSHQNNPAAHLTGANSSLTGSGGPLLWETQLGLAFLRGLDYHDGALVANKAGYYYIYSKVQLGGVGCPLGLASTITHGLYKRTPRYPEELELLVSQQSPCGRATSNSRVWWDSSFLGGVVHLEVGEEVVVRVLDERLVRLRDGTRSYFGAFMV

His-human LIGHT [4] = biological target: T3, His-human LIGHT (human); assay: cell-based or functional assay
T3 chain: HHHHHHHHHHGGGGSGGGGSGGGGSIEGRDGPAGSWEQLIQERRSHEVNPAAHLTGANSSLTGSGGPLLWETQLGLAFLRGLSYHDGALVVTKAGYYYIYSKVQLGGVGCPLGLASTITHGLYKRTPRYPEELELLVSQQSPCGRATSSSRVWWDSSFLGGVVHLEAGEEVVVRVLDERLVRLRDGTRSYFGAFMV

His-human LIGHT [5] = biological target: T3, His-human LIGHT; assay: cell-based or functional assay
His-human LIGHT [6] = biological target: T3, His-human LIGHT; assay: cell-based or functional assay
hFc-human LIGHT [7] = biological target: T1, hFc-human LIGHT; assay: competition ELISA, LTβR-His coated, hFc-huLIGHT added
His-human LIGHT [8] = biological target: T3, His-human LIGHT; assay: ELISA, His-huLIGHT coated
His-human LIGHT [9] = biological target: T3, His-human LIGHT; assay: cell-based or functional assay
hFc-human LIGHT [10] = biological target: T1, hFc-human LIGHT; assay: competition ELISA, HVEM-His coated, hFc-huLIGHT 1 µg/ml
[11] = biological target: T2, His-cynomolgus monkey LIGHT; assay: ELISA, His-cynoLIGHT coated
His-human LIGHT [12] = biological target: T3, His-human LIGHT; assay: SPR, Biacore 8K, antibody on CM5 chip
[13] = biological target: T2, His-cynomolgus monkey LIGHT; assay: ELISA, His-cynoLIGHT coated
His-mouse LIGHT = biological target: T4, His-mouse LIGHT (mouse); assay: ELISA, His-musLIGHT coated
T4 construct: also called His-musLIGHT
T4 chain: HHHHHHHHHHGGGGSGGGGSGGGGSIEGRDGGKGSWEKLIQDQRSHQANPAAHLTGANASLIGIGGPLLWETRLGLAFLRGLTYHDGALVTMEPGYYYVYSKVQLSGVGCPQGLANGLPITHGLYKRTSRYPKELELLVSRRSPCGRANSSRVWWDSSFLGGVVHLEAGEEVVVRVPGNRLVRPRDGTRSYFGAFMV

hFc-human LIGHT [14] = biological target: T1, hFc-human LIGHT; assay: competition ELISA, LTβR-His coated, hFc-huLIGHT added; remark: listed apart in the source
His-human LIGHT [15] = biological target: T3, His-human LIGHT; assay: ELISA, His-huLIGHT coated

B1: LT-m37 (antibody, human IgG4, V domains shown)
VH: QVQLKQSGAELVRPGTSVKVSCKASGYSFTGYFINWVKQSHGKSLEWIGRIYPYNVNTFYNQNFKGRATLTADKSSSTAHMELLSLTSEDSAVYYCGRGTHYYGSSGAMDYWGQGTSVTVSS
VL: DILLTQSHKFMSTSVGDRVSITCKASQNVGTAVAWYQQKPGQSPKLLIYSASNRYTGVPDRFTGSGSGTDFTLTISNMQSEDLADYFCQQYSSYPYTFGGGTKLEIK
IC50, LTβR NF-κB luciferase reporter, HEK293-LIGHT cells [1]: 2.28 nM
IC50 ratio (IC50 of the antibody / IC50 of F19) (hFc-human LIGHT [2]): 0.301
EC50 [3]: 0.157 nM
IC50, HVEM NF-κB luciferase reporter, free LIGHT (His-human LIGHT [4]): 0.402 nM
IC50, LTβR NF-κB luciferase reporter, free LIGHT (His-human LIGHT [5]): 0.257 nM
IC50, HVEM NF-κB luciferase reporter (293T-HVEM-NF-κB-Luc), free LIGHT (His-human LIGHT [6]): 0.264 µg/mL
IC50 (hFc-human LIGHT [7]): 0.866 nM
EC50 (His-human LIGHT [8]): 0.0774 µg/mL
IC50, LIGHT induced MMP-9 production in BEAS-2B bronchial epithelial cells (His-human LIGHT [9]): 0.359 µg/mL
IC50 ratio (IC50 of the antibody / IC50 of F19) (hFc-human LIGHT [10]): 0.435

B2: LT-m31 (antibody, human IgG4, V domains shown)
VH: QIQLLQSGPELEKPGETVKISCKASGYTFTNYGMNWVKQAPGKGLKWMGWINTYTGEPTYADDFKGRFAFSLETSASTAYLQINNLKNEDTATYFCARDNWDGKGMDYWGQGTSVTVSS
VL: DIVLTQSPKFMSTSVGDRVSITCKASQDVDTAVAWYQQKPGHSPKLLLYWASTRHTGVPDRFTGSGSGTDFTLTISNVQSEDLADYFCHQYGSYPLTFGAGTKLELK
IC50, HVEM NF-κB luciferase reporter (293T-HVEM-NF-κB-Luc), free LIGHT (His-human LIGHT [6]): 0.105 µg/mL
binding result [11]: binds
Kd (His-human LIGHT [12]): 0.0395 nM
koff (His-human LIGHT [12]): 4.03e-05 s⁻¹
kon (His-human LIGHT [12]): 1.02e+06 M⁻¹ s⁻¹
EC50 (His-human LIGHT [8]): 0.0256 µg/mL

B3: LT-m33 (antibody, human IgG4, V domains shown)
VH: QVQLKQSGAELVKPGASVRLSCKTSGYTFTNYYVYWVKQRPGQGLEWIGEINPTNGDPNFNEKFKSKATLTVDKSSSTAYMHLSSLTSEDSAVYYCTRSNWDYGNAMDFWGQGTSVTVSS
VL: DIVMTQSPASLAVSLGQRATISCKASQSVDFDGDGYMNWYQQKPGQPPKLLIYKASHLDSGIPARFSGSGSGTDFTLNIHPVEEEDAATYYCQQSIEDPLTFGDGTRLEIK
IC50, HVEM NF-κB luciferase reporter (293T-HVEM-NF-κB-Luc), free LIGHT (His-human LIGHT [6]): 0.207 µg/mL
binding result [11]: binds
Kd (His-human LIGHT [12]): 0.0235 nM
koff (His-human LIGHT [12]): 4.07e-05 s⁻¹
kon (His-human LIGHT [12]): 1.73e+06 M⁻¹ s⁻¹
EC50 (His-human LIGHT [8]): 0.0221 µg/mL

B4: hum_LT-m58-6 (antibody, human IgG4, V domains shown)
VH: QVQLVQSGAEVKKPGASVKVSCKASGYTFIDHIMNWVRKAPGQGLEWMGRIYPVSGETNYNQKFMGRATFTVDRSTSTVYMELSSLRSEDTAVYYCGRGSYYWNAMDYWGQGTLVTVSS
VL: DIVMTQSPDSLAVSLGERATINCKASQSVDFDGESYMNWYQQKPGQPPKLLIYSASNLESGVPDRFSGSGSGTDFTLTISSLQAEDVAVYYCQQSIEDPWTFGQGTKVEIK
notes: humanized from LT-m58
EC50 [13]: 0.00258 nM
binding result (His-mouse LIGHT): no binding
IC50 (hFc-human LIGHT [14]): 0.628 nM
EC50 (His-human LIGHT [15]): 0.0349 nM
